Marks after values point to notes of the source that are not given here.
Key:
[1] = molecular target: T1, Fluorescence-quenched Big-ET-1 analogue (17 aa Big-ET)
T1 chain: DIAWFXTPEHVVPYGLG

[2] = molecular target: T2, big endothelin (Big ET-1), P05305
T2 chain: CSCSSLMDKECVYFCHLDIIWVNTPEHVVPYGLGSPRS

substance P, P20366 = molecular target: T3, substance P, P20366
T3 chain: RPKPQQFFGLM

[3] = molecular target: T4, atrial natriuretic peptide (ANP), P01160
T4 chain: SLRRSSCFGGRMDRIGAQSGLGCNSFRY

[4] = molecular target: T5, endothelin (ET-1), P05305
T5 chain: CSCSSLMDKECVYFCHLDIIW

PACAP(1-27) = molecular target: T6, PACAP(1-27)
T6 chain: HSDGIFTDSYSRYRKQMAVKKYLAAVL

bradykinin, P01042, sequence (P01042 whole entry, looked up): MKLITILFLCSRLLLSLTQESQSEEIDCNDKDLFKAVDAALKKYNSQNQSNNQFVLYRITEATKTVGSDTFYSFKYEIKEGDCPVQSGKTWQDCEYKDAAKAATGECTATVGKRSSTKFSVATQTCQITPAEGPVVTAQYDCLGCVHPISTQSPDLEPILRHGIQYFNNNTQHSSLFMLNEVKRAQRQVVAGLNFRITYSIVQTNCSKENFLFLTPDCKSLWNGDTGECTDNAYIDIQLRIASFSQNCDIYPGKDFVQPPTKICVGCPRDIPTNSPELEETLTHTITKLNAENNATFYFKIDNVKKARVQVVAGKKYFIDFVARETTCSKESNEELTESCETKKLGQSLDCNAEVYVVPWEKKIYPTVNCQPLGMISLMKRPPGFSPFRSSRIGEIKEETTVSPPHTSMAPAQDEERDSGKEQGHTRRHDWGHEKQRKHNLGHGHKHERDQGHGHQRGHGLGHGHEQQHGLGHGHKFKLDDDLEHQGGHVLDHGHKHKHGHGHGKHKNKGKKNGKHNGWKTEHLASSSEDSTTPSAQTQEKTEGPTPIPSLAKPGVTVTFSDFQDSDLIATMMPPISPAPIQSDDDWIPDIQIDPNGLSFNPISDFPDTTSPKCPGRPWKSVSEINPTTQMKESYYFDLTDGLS
angiotensin-1, P01019, sequence (P01019 whole entry, looked up): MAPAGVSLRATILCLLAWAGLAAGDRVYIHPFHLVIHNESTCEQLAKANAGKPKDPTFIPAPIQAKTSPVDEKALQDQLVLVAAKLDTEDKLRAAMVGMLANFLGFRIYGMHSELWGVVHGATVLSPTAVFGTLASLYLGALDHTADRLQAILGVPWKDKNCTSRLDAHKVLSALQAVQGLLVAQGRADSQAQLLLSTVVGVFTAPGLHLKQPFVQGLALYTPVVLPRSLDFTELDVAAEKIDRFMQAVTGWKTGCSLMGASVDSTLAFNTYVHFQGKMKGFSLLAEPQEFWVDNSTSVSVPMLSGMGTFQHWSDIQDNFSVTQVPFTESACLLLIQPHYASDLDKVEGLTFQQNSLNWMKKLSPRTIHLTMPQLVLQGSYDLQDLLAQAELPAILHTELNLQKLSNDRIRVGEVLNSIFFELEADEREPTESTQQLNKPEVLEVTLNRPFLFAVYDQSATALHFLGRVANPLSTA

B1: His6-tagged IGS5 ectodomain (recombinant soluble His-tagged human IGS5) (protein)
chain: GSHHHHHHSEVCTTPGCVIAAARILQNMDPTTEPCDDFYQFACGGWLRRHVIPETNSRYSIFDVLRDELEVILKAVLENSTAKDRPAVEKARTLYRSCMNQSVIEKRGSQPLLDILEVVGGWPVAMDRWNETVGLEWELERQLALMNSQFNRRVLIDLFIWNDDQNSSRHIIYIDQPTLGMPSREYYFNGGSNRKVREAYLQFMVSVATLLREDANLPRDSCLVQEDMMQVLELETQLAKATVPQEERHDVIALYHRMGLEELQSQFGLKGFNWTLFIQTVLSSVKIKLLPDEEVVVYGIPYLQNLENIIDTYSARTIQNYLVWRLVLDRIGSLSQRFKDTRVNYRKALFGTMVEEVRWRECVGYVNSNMENAVGSLYVREAFPGDSKSMVRELIDKVRTVFVETLDELGWMDEESKKKAQEKAMSIREQIGHPDYILEEMNRRLDEEYSNLNFSEDLYFENSLQNLKVGAQRSLRKLREKVDPNLWIIGAAVVNAFYSPNRNQIVFPAGILQPPFFSKEQPQALNFGGIGMVIGHEITHGFDDNGRNFDKNGNMMDWWSNFSTQHFREQSECMIYQYGNYSWDLADEQNVNGFNTLGENIADNGGVRQAYKAYLKWMAEGGKDQQLPGLDLTHEQLFFINYAQVWCGSYRPEFAIQSIKTDVHSPLKYRVLGSLQNLAAFADTFHCARGTPMHPKERCRVW
- % Hydrolysis [1]: 41%
- % Hydrolysis [2]: (?)****
- % Hydrolysis (100 ng IGS5 polypeptide; 0.5 µM substrate; 2 h, 37° C.) (substance P, P20366): 100%
- % Hydrolysis (100 ng IGS5 polypeptide; 0.5 µM substrate; 2 h, 37° C.) (bradykinin, P01042): 100%
- % Hydrolysis (**10 ng IGS5 polypeptide) (bradykinin, P01042): 62%
- % Hydrolysis (100 ng IGS5 polypeptide; 0.5 µM substrate; 2 h, 37° C.) [3]: 5%
- % Hydrolysis (*500 ng IGS5 polypeptide) [3]: 80%
- % Hydrolysis (100 ng IGS5 polypeptide; 0.5 µM substrate; 2 h, 37° C.) [4]: < 30%
- % Hydrolysis (100 ng IGS5 polypeptide; 0.5 µM substrate; 2 h, 37° C.) (angiotensin-1, P01019): 15%
- % Hydrolysis (PACAP(1-27)): 69%

B2: XCE/DINE (recombinantly produced) (protein)
chain: KYLGPVAAGGGACPEGCPERKAFARAARFLAANLDASIDPCQDFYSFACGGWLRRHAIPDDKLTYGTIAAIGEQNEERLRRLLARPGGGPGGAAQRKVRAFFRSCLDMREIERLGPRPMLEVIEDCGGWDLGGAEERPGVAARWDLNRLLYKAQGVYSAAALFSLTVSLDDRNSSRYVIRIDQDGLTLPERTLYLAQDEDSEKILAAYRVFMERVLSLLGADAVEQKAQEILQVEQQLANITVSEHDDLRRDVSSMYNKVTLGQLQKITPHLRWKWLLDQIFQEDFSEEEEVVLLATDYMQQVSQLIRSTPHRVLHNYLVWRVVVVLSEHLSPPFREALHELAQEMEGSDKPQELARVCLGQANRHFGMALGALFVHEHFSAASKAKVQQLVEDIKYILGQRLEELDWMDAETRAAARAKLQYMMVMVGYPDFLLKPDAVDKEYEFEVHEKTYFKNILNSIRFSIQLSVKKIRQEVDKSTWLLPPQALNAYYLPNKNQMVFPAGILQPTLYDPDFPQSLNYGGIGTIIGHELTHGYDDWGGQYDRSGNLLHWWTEASYSRFLRKAECIVRLYDNFTVYNQRVNGKHTLGENIADMGGLKLAYHAYQKWVREHGPEHPLPRLKYTHDQLFFIAFAQNWCIKRRSQSIYLQVLTDKHAPEHYRVLGSVSQFEEFGRAFHCPKDSPMNPAHKCSVW
- cleavage of PACAP(1-27), HPLC (PACAP(1-27)): None of the aforementioned enzymes was able to cleave PACAP(1-27) under the assay conditions as described above for IGS5

B3: NEP (recombinantly produced and purified neutral endopeptidase, neprilysin) (protein)
chain: YDDGICKSSDCIKSAARLIQNMDATTEPCTDFFKYACGGWLKRNVIPETSSRYGNFDILRDELEVVLKDVLQEPKTEDIVAVQKAKALYRSCINESAIDSRGGEPLLKLLPDIYGWPVATENWEQKYGASWTAEKAIAQLNSKYGKKVLINLFVGTDDKNSVNHVIHIDQPRLGLPSRDYYECTGIYKEACTAYVDFMISVARLIRQEERLPIDENQLALEMNKVMELEKEIANATAKPEDRNDPMLLYNKMTLAQIQNNFSLEINGKPFSWLNFTNEIMSTVNISITNEEDVVVYAPEYLTKLKPILTKYSARDLQNLMSWRFIMDLVSSLSRTYKESRNAFRKALYGTTSETATWRRCANYVNGNMENAVGRLYVEAAFAGESKHVVEDLIAQIREVFIQTLDDLTWMDAETKKRAEEKALAIKERIGYPDDIVSNDNKLNNEYLELNYKEDEYFENIIQNLKFSQSKQLKKLREKVDKDEWISGAAVVNAFYSSGRNQIVFPAGILQPPFFSAQQSNSLNYGGIGMVIGHEITHGFDDNGRNFNKDGDLVDWWTQQSASNFKEQSQCMVYQYGNFSWDLAGGQHLNGINTLGENIADNGGLGQAYRAYQNYIKKNGEEKLLPGLDLNHKQLFFLNFAQVWCGTYRPEYAVNSIKTDVHSPGNFRIIGTLQNSAEFSEAFHCRKNSYMNPEKKCRVW
- cleavage of PACAP(1-27), HPLC (PACAP(1-27)): None of the aforementioned enzymes was able to cleave PACAP(1-27) under the assay conditions as described above for IGS5

B4: ECE-1 (recombinantly produced endothelin converting enzyme-1) (protein)
chain: QYQTRSPSVCLSEACVSVTSSILSSMDPTVDPCHDFFSYACGGWIKANPVPDGHSRWGTFSNLWEHNQAIIKHLLENSTASVSEAERKAQVYYRACMNETRIEELRAKPLMELIERLGGWNITGPWAKDNFQDTLQVVTAHYRTSPFFSVYVSADSKNSNSNVIQVDQSGLGLPSRDYYLNKTENEKVLTGYLNYMVQLGKLLGGGDEEAIRPQMQQILDFETALANITIPQEKRRDEELIYHKVTAAELQTLAPAINWLPFLNTIFYPVEINESEPIVVYDKEYLEQISTLINTTDRCLLNNYMIWNLVRKTSSFLDQRFQDADEKFMEVMYGTKKTCLPRWKFCVSDTENNLGFALGPMFVKATFAEDSKSIATEIILEIKKAFEESLSTLKWMDEETRKSAKEKADAIYNMIGYPNFIMDPKELDKVFNDYTAVPDLYFENAMRFFNFSWRVTADQLRKAPNRDQWSMTPPMVNAYYSPTKNEIVFPAGILQAPFYTRSSPKALNFGGIGVVVGHELTHAFDDQGREYDKDGNLRPWWKNSSVEAFKRQTECMVEQYSNYSVNGEPVNGRHTLGENIADNGGLKAAYRAYQNWVKKNGAEHSLPTLGLTNNQLFFLGFAQVWCSVRTPESSHEGLITDPHSPSRFRVIGSLSNSKEFSEHFRCPPGSPMNPPHKCEVW
- cleavage of PACAP(1-27), HPLC (PACAP(1-27)): None of the aforementioned enzymes was able to cleave PACAP(1-27) under the assay conditions as described above for IGS5

Reference: US20070224180
